Key:
Bcl-2 and Bfl-1 = test: Anti-apoptotic protein expression in ARPE-19 cells under serum starvation/H2O2/TNFα oxidative stress (Western blot); format: cell-based, human; conditions: DHA 10 to 50 nM, with or without PEDF
Method: (§1) Exposure of ARPE-19 cells to growth factors. Cells at 75-80% confluence (72 hr growth in DMEM/F12+10% FBS) were serum-starved for 2 hr before exposure to growth factors. The serum-starved cells were treated with TNF-α (Sigma-Aldrich Corporation, St. Louis, Mo.) (10 ng/ml) and H2O2 (600 μM) to induce oxidative stress and challenged with increasing concentrations (10, 30, 50 nM) and PEDF (Chemicon International, Temecula, Calif.) (50 ng/ml) simultaneously with oxidative stress for 4 hr before harvesting for protein analysis. Cell extracts were made and protein concentrations were adjusted by Bio-Rad protein reagent and used for Western-blot analysis. […] Cells were analyzed to detect Hoechst-positive apoptotic cells.
(§2) Analysis of Bcl-2 and caspase-3 cleavage. Bcl-2 protein and caspase-3 cleavage were analyzed by Western-blot analysis. […] The membranes were probed with primary antibodies against Bcl-2 (Santa Cruz Biotechnology, Inc., Santa Cruz, Calif.) and cleaved caspase-3 (Asp-175) (Cell Signaling) at room temperature and treated for 20 minutes with the secondary antibody, goat anti-rabbit IgG: horseradish peroxidase, and horseradish peroxidase-conjugated anti-biotin antibody, then proteins were detected by using an ECL kit (Amersham Biosciences, Buckinghamshire, United Kingdom). […]

NPD1 synthesis [1] = test: NPD1 synthesis and release from polarized primary human RPE cell monolayers (lipidomic analysis); format: cell-based; conditions: 72 hr
Method: Human RPE cells. Cultures of retinal pigment epithelial (RPE) cells were prepared. RPE cells were seeded onto Millicell-HA culture plate inserts (Millipore, Bradford, Mass.), placed in 24-well plates, and allowed to reach confluence. Consent for use of tissue for research was obtained in compliance with Federal and State law and institutional regulations. Cultures were maintained in Chee's essential replacement medium until the experiments were performed as described in J. Hu and D. Bok (2001) Mol Vis 7:14-19. The medium includes Eagle's minimal essential medium with calcium (MEM, Irvine Scientific, Irvine, Calif.), 1% heat-inactivated calf serum (JRH Bioscience, Lennexo, Kans.), amino acid supplements, and 1% bovine retinal extract. The Millicell-HA filter inserts allow separate manipulation of the culture media bathing the apical and basal surfaces of the RPE monolayer and measurement of the transepithelial resistance (TER), which provides a measure of cell differentiation and confluency. Cultures were used for experiments once they developed a TER of at least 400 Ω·cm^2, as measured by an Epithelial Volt-ohmmeter (EVOM, World Precision Instruments, New Haven, Conn.).
Exposure of RPE cells to growth factors. […] […] The lower chamber was filled with 500 μl media (bathing the basal cell monolayer surface) containing 0.1% HSA. Cells were incubated for 72 hours, then apical and basal media were removed and collected for analysis. After allowing the cells to rest for at least 72 hours on fresh media, the experiments were repeated.
Lipidomic analysis. Human RPE primary cell cultures or ARPE-19 cells were separated from culture media and washed with 1 ml PBS. After addition of 1 ml methanol, cells were scraped from plates or millicell membranes and collected for lipid extraction. Media was spun-down to separate cell debris, then 350 μl were collected in 1 ml of cold chloroform:methanol (1:1). Protein precipitates were then separated by centrifugation at 1500×g (5 min, 4° C.). Lipid extracts were collected, and kept under nitrogen at −80° C. until solid-phase purification; extracts were pre-equilibrated at pH 3.0 in 10% methanol/water, then loaded to 500 mg C18 columns (Varian, Inc., Palo Alto, Calif.), and eluted with 1% methanol/ethyl acetate. Eluates were concentrated on a N2 stream evaporator. Samples were loaded to a liquid chromatograph-tandem mass spectrometer (LC-TSQ Quantum, Thermo-Finnigan; Thermo Fisher Scientific, Waltham, Mass.) installed with a Biobasic-AX column (Thermo-Hypersil-Keystone, Thermo Fisher Scientific, Waltham, Mass.) (100 mm\2.1 mm, 5-μm particle sizes), and eluted in a linear gradient [100% solution A (40:60:0.01 methanol/water/acetic acid pH 4.5) to 100% solution B (99.99:0.01 methanol/acetic acid)], at a flow rate of 300 μl/min for 30 minutes. LC effluents were diverted to an electro-spray-ionization probe (ESI) on a TSQ Quantum (Thermo-Finnigan, Thermo Fisher Scientific, Waltham, Mass.) triple quadrupole mass spectrometer. NPD1 and resolving D1 were obtained by biogenic synthesis as described in N. G. Bazan, D. L. Birkle, and T. S. Reddy (1984) Biochem Biophys Res Commun. 125:741-74, and V. L. Marcheselli et al. (2003) J. Biol. Chem. 278:43807-43817. Erratum in: (2003) J Biol Chem 278:51974. Other lipid standards (Cayman Chem. Ann Arbor, Mich.) were used for tuning and optimization and to create calibration curves. The instrument was set on full-scan mode, to detect parent ions, and selected reaction mode (SRM) for quantitative analysis, to detect product ions, simultaneously. The selected parent/product ions (m/z) and collision energy (v) obtained by running on negative ion detection mode were: 359.2/153.1/20 for NPD1, 343.2/281.2/18 for resolving D1, 351.2/195.0/22 for 20HO-LTB4 (used as internal standard), 327.2/283.3/16 for DHA, 311.3/267.3/20 Arachidonic Acid-d8 (used as internal standard, IS).
Neurotrophins activated NPD1 synthesis in cultured primary human RPE cells. […]

NPD1 synthesis [2] = test: NPD1 synthesis in cultured ARPE-19 cells (lipidomic analysis); format: cell-based, human; conditions: serum starvation/H2O2/TNFα oxidative stress for the combination
Method: Exposure of ARPE-19 cells to growth factors. Cells at 75-80% confluence (72 hr growth in DMEM/F12+10% FBS) were serum-starved for 2 hr before exposure to growth factors. The serum-starved cells were treated with TNF-α (Sigma-Aldrich Corporation, St. Louis, Mo.) (10 ng/ml) and H2O2 (600 μM) to induce oxidative stress and challenged with increasing concentrations (10, 30, 50 nM) and PEDF (Chemicon International, Temecula, Calif.) (50 ng/ml) simultaneously with oxidative stress for 4 hr before harvesting for protein analysis. Cell extracts were made and protein concentrations were adjusted by Bio-Rad protein reagent and used for Western-blot analysis. To study neuroprotection by DHA and PEDF in the oxidative stress-induced ARPE-19 cells, 72 hr cells were serum-starved for 8 hr before the introduction of oxidative stress and challenged with DHA and PEDF for 15 hr. Cells were analyzed to detect Hoechst-positive apoptotic cells.
Lipidomic analysis. Human RPE primary cell cultures or ARPE-19 cells were separated from culture media and washed with 1 ml PBS. After addition of 1 ml methanol, cells were scraped from plates or millicell membranes and collected for lipid extraction. […] The instrument was set on full-scan mode, to detect parent ions, and selected reaction mode (SRM) for quantitative analysis, to detect product ions, simultaneously. […]

Bid, Bax, and Bad = test: Pro-apoptotic protein expression in ARPE-19 cells under serum starvation/H2O2/TNFα oxidative stress (Western blot); format: cell-based, human; conditions: DHA 10 to 50 nM, with or without PEDF
Method: as §1, §2

B1: PEDF: pigment epithelium-derived factor, a member of the serine protease inhibitor (serpin) family (protein, UniProt P36955 20-418, looked up)
Pigment epithelium-derived …: QNPASPPEEGSPDPDSTGALVEEEDPFFKVPVNKLAAAVSNFGYDLYRVRSSTSPTTNVLLSPLSVATALSALSLGAEQRTESIIHRALYYDLISSPDIHGTYKELLDTVTAPQKNLKSASRIVFEKKLRIKSSFVAPLEKSYGTRPRVLTGNPRLDLQEINNWVQAQMKGKLARSTKEIPDEISILLLGVAHFKGQWVTKFDSRKTSLEDFYLDEERTVRVPMMSDPKAVLRYGLDSDLSCKIAQLPLTGSMSIIFFLPLKVTQNLTLIEESLTSEFIHDIDRELKTVQAVLTVPKLKLSYEGEVTKSLQEMKLQSLFDSPDFSKITGKPIKLTQVEHRAGFEWNEDGAGTTPSPGLQPAHLTFPLDYHLNQPFIFVLRDTDTGALLFIGKILDPRGP
- Bcl-2 and Bfl-1 anti-apoptotic protein expression (Bcl-2 and Bfl-1): unable to alter the expression of pro- and anti-apoptotic proteins
- NPD1 synthesis and release through the apical surface (NPD1 synthesis [1]; growth factors 20 ng/ml added to apical medium): by far the most potent stimulator of NPD1 synthesis
- NPD1 release, neurotrophin added to the apical medium (NPD1 synthesis [1]; increasing concentrations): concentration-dependent increases in NPD1 release only on the apical side
- NPD1 release, neurotrophin added to the basal medium (NPD1 synthesis [1]; increasing concentrations): much less NPD1 release on the apical side
- NPD1 synthesis in ARPE-19 cells (NPD1 synthesis [2]): up-regulate NPD1 synthesis
- Bid, Bax and Bad pro-apoptotic protein expression (Bid, Bax, and Bad): unable to alter the expression of pro- and anti-apoptotic proteins

Source: patent publication US20100303887A1, “DHA and PEDF, a Therapeutic Composition for Nerve and Retinal Pigment Epithelial Cells” (priority 2007, published 2010)
